Assay results reported in patent US20210284724A1 (I MAB BIOPHARMA US, published 2021).
Substitutions are numbered along the chain they refer to.

T1: human CXCL13 (human, UniProt O43927 23-109)
T1 construct: also called huCXCL13; rhCXCL13
T1 sequence (looked up): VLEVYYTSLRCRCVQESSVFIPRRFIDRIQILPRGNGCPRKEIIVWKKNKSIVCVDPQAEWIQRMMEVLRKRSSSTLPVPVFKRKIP

T2: cynomolgus CXCL13 (cynomolgus, UniProt H6WS58 23-109)
T2 construct: also called cynoCXCL13; Cyno CXCL13
T2 sequence: T1 sequence (looked up) with S8H, L32S, I52V, M65I, V68M, R72K, L77P

T3: mouse CXCL13 (mouse, UniProt O55038 22-109)
T3 construct: also called rmCXCL13
T3 sequence (looked up): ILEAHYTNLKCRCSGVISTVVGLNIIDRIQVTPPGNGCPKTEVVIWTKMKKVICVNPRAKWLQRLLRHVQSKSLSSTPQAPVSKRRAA

B1: 339A9E7 (antibody, V domains shown)
VH: DVQLQESGPGLVKPSQSLSLTCTVTGYSITSDYAWNWNRQFPGNKLEWMGYISYSGDTSYNPSLRSRISITRDTSKNQFFLQLNSVTAEDTAKYYCVAGHFDYWGQGTTLTVSS
VL: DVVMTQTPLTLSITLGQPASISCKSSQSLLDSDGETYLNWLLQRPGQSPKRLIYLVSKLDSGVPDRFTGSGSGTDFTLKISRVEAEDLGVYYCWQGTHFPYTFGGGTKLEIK
notes: Hybridoma mAb
B2: 537C8D7 (antibody, V domains shown)
VH: EVQLVESGGGLVLPGRSLKLSCAASGFTFSDYAMAWVRQAPKKGLEWVATVFYDGSDTFYRDSVKGRFTISRDNAKSTLYLQMDSLRSEDTATYYCAREGDYYSRHVYVGYNWFPHWGQGTLVTVSS
VL: DIRMTQSPASLSASLGETVNIECLTSEDINSELAWYQQKPGKFPQFLIYNANSLQDGVPSRFSGSGSGTQYSLKINSLQSEDVATYFCQQYNSYPLTFGSGTELEIK
notes: Hybridoma mAb
B3: 21H12D9 (antibody, V domains shown)
VH: EVQLQQSGPVLVRPGASVKMSCKASGYTFTDYYMNWVKQSHGKSLEWIGVINPNNGGTTYKEKFKGKATLTVDKSSGTAYMELNSLTSEDSAVYYCARDDYDAGYWGQGTTLTVSS
VL: DIVMTQFQKFMSTTVGDRVSITCKASQNVDTAVAWYQHKPGQSPKLLIYSASHRYTGVPDRFTGSGSGTDFTLTISNVQSEDLADYFCQQYTDFPLTFGAGTKLELK
notes: Hybridoma mAb
B4: 64C10G1 (antibody, V domains shown)
VH: EVQLVESGGGLVKPGGSLKLSCAASGFTFSSYAMSWVRQTPEKRLEWVATISDGGSDAYYPDNVKGRFTISRDNAKNNLYLQMSHLKSEDTAMYYCARDYYGSGYEDSPMDYWGQGTSVTVSS
VL: DIQMTQSPSSLSASLGGKVTITCKASQDINKYIAWYQHKPGKGPRLLIHYTSTLQPGIPSRFSGSGSGRDYSFSISNLEPEDFATYYCLQYDNLYTFGGGTKLEIK
notes: Hybridoma mAb
B5: 408E3F3 (antibody, V domains shown)
VH: HVTLRESGPGVLQPSKTLSLTCSFSGFSLSTSAMVVSWIRQSSGMSLEWLAAIDWEGDKYYNPSLESRLTVSRDISDTQVFLRITSVDVADTATYYCAVMSSADSHSVLDAWGQGVSVTVSS
VL: DIKMTQSPSFLSASVGDRVTINCKASQNIHNYLNWYQQKFGEAPRLLIYNTNNLQTGIPSRFSGSGSGTDFTLTISSLQPEDVATYFCLQHSSSLTFGSGTKLEIN
notes: Hybridoma mAb
B6: 415A3D1F4 (antibody, V domains shown)
VH: EVKLLESGGGLVQAGGSMRLSCGAFGFTVTDFYINWIRQPAGKAPEWLGFMRNKANGYTTEYNPSVKGRFTISRNNTQNMPYLQMNTLRTEDTAIYYCARSRYNADDYYVGVMDVWGQGASVTVSS
VL: DIQMTQFPASLSASLGETVSIECLASEDIYNNLAWYQQKPGKSPQLLIYYTNSLQDGVPSRFSGTGSGTQYSLKINSLESEDAATYFCLQDSEYPWTFGGGTKLKLK
notes: Hybridoma mAb
B7: 19H7E10 (antibody, V domains shown)
VH: EVQLQQSGPELVKPGASVKISCQASGYAFSDYYMNWVKQSHGKRLEWIGDINPNNDGTTYNQKFKDKATLTVDKSSSTAYMDLRSLTSEDSAVYYCARLSWSFFAMDYWGQGTSVTVSS
VL: DIVMTQSHKFMSTSVGDRVSITCKASQDVSSGVAWYQQKPGQSPKVLIYSASHRHTGVPDRFTASGSGTDFTFTISSVQAEDLAVYYCQQYYNTPWTFGGGTKLEIK
notes: Hybridoma mAb
B8: 411A11E9 (antibody, V domains shown)
VH: EVQLVESGGGLVQPGGSLKLSCVVSGFTFSDYYMAWVRQTPTKGLEWVASINYDGGDTYYRDSVKGRFTVSRNNAKSSLFLQMDSLRSEDTATYYCKTEEDYDGSYVMDAWGQGASVIVSS
VL: DIQMTQSPSFLSASVGDRVTISCKASQNINKELTWYQQKLGKAPKRLIYNTNILQTGIPSRFSGSGSNTDYTLTISSLQPEDFATYFCLQQSSLYTFGAGTKLELK
notes: Hybridoma mAb
B9: 119H10D6 (antibody, V domains shown)
VH: QVQLQQSGAELMKPGASVKISCKATGYTFNTYWIEWVKQRPGHGLEWIGEILPGSESTDYNEKFKDKATFTADISSNTAYMQLSSLTSEDSAVYYCARDYYGYYFDYWGQGTTLTVSS
VL: DIVMTQSHKFMSTSVGDRVSITCKASQDVSTAVVWYQQKPGQSPKLLIYSASYRYTGVPDRFSGSGSGTDFTFTISSVQAEDLAVYYCQQHYSSPRTFGGGTKLEIK
notes: Hybridoma mAb
B10: 130D6G1 (antibody, V domains shown)
VH: B9 VH with A24S, N30S, E56D, D59N, Y60S, K65E, D66G, I74T, Y103F
VL: B9 VL with S20N, V34A, A51T, S63T, S77N, S93T, S94T
notes: Hybridoma mAb
B11: 156H3H7 (antibody, V domains shown)
VH: EVQLQQSGPELVKPGASVKISCKASGYTFTDYYMNWVRQSHGKSLEWIGDINPNNGDTTYNQKFKGKATLTVDTSSSTVYMELRSLTSEDSAVYYCAGYDEDHYAMDYWGQGTSVTVSS
VL: B7 VL with I2Y, S31T, K39N, V46L, H55Y, A64G, N93T
notes: Hybridoma mAb
B12: 168A2D4 (antibody, V domains shown)
VH: EVQLQQSGPELVKPGASVKISCKASGNTLTDYYMNWVKQSHGKSLEWIGDINPNNGDIIYNQKFKGKATLTVAKSSSTAYMELRSLTSEDSAVYYCAIYYDPYYHAMDYWGQGTSVTVSS
VL: B9 VL with G16R, A32G, V34A, S63T, H91Q, S94V, R96L, G100A, I106L
notes: Hybridoma mAb
B13: 168D6F2 (antibody, V domains shown)
VH: QVQLQQPGAELVKPGASVKLSCQASGYTFTSYWMHWVKQRPGRGLEWIGGIDPDSGATKDNEKFKTKATLTVDKPSRTAYIQLSSLTSEDSAVFYCARGSTVVAPGDYFAMDYWGQGTSVTVSS
VL: DIVLTPSPTSLAVSLGQRATMSCRASESVDNYGISFMHWYQQKPGQPPKLLIYRASNLDSGIPARFSASGSRTDFTLTINPVETDDVATYYCQQSNKDPWTFGGGTKLEIK
notes: Hybridoma mAb
B14: 175E3B10 (antibody, V domains shown)
VH: QVTLKESGPGILQPSQTLSLTCSFSEFSLSVFGMGVGWIRQPSGKGLEWLAHIWWDDEKYYNPALKSRLTISKDTSKNQVFLKIANVDTADTATYFCARIDGYYDFDYWGQGTTLTVSS
VL: DVLMTQTPLSLPVSLGTQASIFCRSSHSIVQDNGNTYLQWYLQKPGQSPKLLIYKVSNRFSGVPDRFSGSGSGTDFTLKISRVEAEDLGVYYCFQGSYVPYTFGGGTKLEIK
notes: Hybridoma mAb
B15: 184H10B5 (antibody, V domains shown)
VH: B14 VH with F96Y
VL: B14 VL with F22S, K50Q
notes: Hybridoma mAb
B16: 177D2G10 (antibody, V domains shown)
VH: QIALKESGPGILQSSQTLSLTCSFSGFSLSTSGMHVGWFRQPSGKTLEWLAHIYWDDDKRYNPSLKSRLTISKDTSRNQVFLNLTNVDTADTATYYCARRGGDYDYDEGFDYWGQGTTLTVSS
VL: DVVMTQTPLSLPVSLGDQASISCRSSQSLVHSNGFTYLHWYLQKPGQSPKLLIYKVSNRFSGVPDRFSGSGSGTEFTLRISRVEAEDLGVYFCSQSTHVPYTFGGGTKLEIK
notes: Hybridoma mAb

How the values were obtained:
human CXCL13 [1] = molecular target: T1, human CXCL13; test: ELISA, coated antigen
cynomolgus CXCL13 = molecular target: T2, cynomolgus CXCL13; test: ELISA, coated antigen
mouse CXCL13 = molecular target: T3, mouse CXCL13; test: ELISA, coated antigen
human CXCL13 [2] = molecular target: T1, human CXCL13; test: cell-based blocking ELISA, CXCL13 to CHO-K1-CXCR5
Method: Splenocytes were electro-fused with mouse myeloma cell line SP2/0 cells and plated into 96-well culture plate. The hybridoma supernatants were tested by ELISA binding assay for anti-human CXCL13 binders. Supernatants of positive binding clones were screened for function in blocking of human CXCL13 binding to its […] CXCR5 by Cell-based receptor blocking ELISA assay. Briefly, 5×10⁴ CHO-K1-CXCR5 cells were plated in 96-well plate with 100 μl of culture medium and incubated at 37° C. overnight. Cells were fixed with 100 μl of 2% PFA at RT for 1 hr after washing with PBS for 1 time. Blocking was done with 1% BSA in PBST for 1 hr at RT. Supernatants were diluted with PBS and pre-incubated with equal volume of 0.3 μg/ml human CXCL13 for 30 min at RT. 100 μl of antibody-antigen complex was then transferred into each cell wells for 30 min at RT. The samples were washed with 1×PBST for 3 times and 100 μl of 3 μg/ml of human Mab5261 antibody was add into each well to capture human CXCL13 and anti-human Fc-HRP was used to indirectly detect human CXCL13 when it bound to CHO-K1-CXCR5 cells. […] Reading was done at […].
Those antibodies were purified from hybridoma supernatants by binding with Protein G column and characterized by ELISA binding assays and cell-based blocking ELISA assays. […] 11/20 clones bound to both human CXCL13 and cynomolgus CXCL13 appeared to completely block human CXCL13 to human CXCR5. 11 blockers bound to both huCXCL13 and cynoCXCL13 were produced as chimeric human IgG1 antibodies for further Characterization.

Binder | EC50 (human CXCL13 [1]) | EC50 (cynomolgus CXCL13) | binding result (mouse CXCL13) | IC50 (human CXCL13 [2]) | binding result (cynomolgus CXCL13) | EC50 (mouse CXCL13)
B1 | 0.0216 µg/mL | 0.0245 µg/mL | no binding | 13.3 µg/mL |  | 
B2 | 0.0128 µg/mL |  |  | 2.46 µg/mL | no binding | 0.0375 µg/mL
B3 | 0.0156 µg/mL | 0.0619 µg/mL | no binding | 1.27 µg/mL |  | 
B4 | 0.0314 µg/mL | 0.347 µg/mL | no binding | 0.33 µg/mL |  | 
B5 | 0.0237 µg/mL | 0.0706 µg/mL | no binding | 1.49 µg/mL |  | 
B6 | 0.0132 µg/mL | 0.0711 µg/mL | no binding | 0.698 µg/mL |  | 
B7 | 0.0385 µg/mL | 0.196 µg/mL | no binding | 2.22 µg/mL |  | 
B8 | 0.0201 µg/mL | 0.252 µg/mL | no binding | 0.793 µg/mL |  | 
B9 | 0.0393 µg/mL |  | no binding | 0.533 µg/mL | no binding | 
B10 | 0.0192 µg/mL |  | no binding | 1.23 µg/mL | no binding | 
B11 | 0.0134 µg/mL |  | no binding | 4.59 µg/mL | no binding | 
B12 | 0.134 µg/mL |  | no binding | 0.29 µg/mL | no binding | 
B13 | 0.0218 µg/mL |  | no binding | 2.09 µg/mL | no binding | 
B14 | 0.0326 µg/mL |  | no binding | 1.42 µg/mL | no binding | 
B15 | 0.0272 µg/mL |  | no binding | 4.85 µg/mL | no binding | 
B16 | 0.0544 µg/mL |  | no binding | ~912 µg/mL | no binding | 
